Experimental data from patent US10081665B2, “Peptides and combination of peptides for use in immunotherapy against various tumors” (immatics biotechnologies GmbH, priority 2015, dated 2018).

molecular target: HLA-A*02:01 (Homo sapiens, UniProt P04439, D140Y/D185E/D98H/E176V/E277Q/G131W/G231S/I119V/I121R/I166T/I218V/L300P/L318F/N151K/N90K/P208A/P217A/Q86G/Q94H/R138H/R169H/T345S); test: MHC binding assay (UV-ligand exchange, beta2m ELISA); settings: binding to HLA-A*02:01, β2m ELISA
Text: Candidate peptides for T cell based therapies according to the present invention were further tested for their MHC binding capacity (affinity). The individual peptide-MHC complexes were produced by UV-ligand exchange, where a UV-sensitive peptide is cleaved upon UV-irradiation, and exchanged with the peptide of interest as analyzed. Only peptide candidates that can effectively bind and stabilize the peptide-receptive MHC molecules prevent dissociation of the MHC complexes. To determine the yield of the exchange reaction, an ELISA was performed based on the detection of the light chain (β2m) of stabilized MHC complexes. The assay was performed as generally described in Rodenko et al. (Rodenko et al., 2006).
96 well MAXISorp plates (NUNC) were coated over night with 2 ug/ml streptavidin in PBS at room temperature, washed 4× and blocked for 1 h at 37° C. in 2% BSA containing blocking buffer. Refolded HLA-A*02:01/MLA-001 monomers served as standards, covering the range of 15-500 ng/ml. Peptide-MHC monomers of the UV-exchange reaction were diluted 100 fold in blocking buffer. Samples were incubated for 1 h at 37° C., washed four times, incubated with 2 ug/ml HRP conjugated anti-82m for 1 h at 37° C., washed again and detected with TMB solution that is stopped with […]. Absorption was measured at 450 nm. Candidate peptides that show a high exchange yield (preferably higher than 50%, most preferred higher than 75%) are generally preferred for a generation and production of antibodies or fragments thereof, and/or T cell receptors or fragments thereof, as they show sufficient avidity to the MHC molecules and prevent dissociation of the MHC complexes.

Row | Substance | Peptide exchange (MHC class I binding score, peptide exchange yield)
1 | 110 (QIQGQVSEV; listed as Homo sapiens) [compound 110] | ++ (≥20% = ++)
2 | 111 (AQLEGKLVSI; listed as Homo sapiens) [compound 111] | +++ (≥50 = +++)
3 | 112 (ILAQDVAQL; listed as Homo sapiens) [compound 112] | +++ (≥50 = +++)
4 | 113 (FLFLKEVKV; listed as Homo sapiens) [compound 113] | ++ (≥20% = ++)
5 | 114 (LLFPSDVQTL; listed as Homo sapiens) [compound 114] | ++ (≥20% = ++)
6 | 115 (ILHGEVNKV; listed as Homo sapiens) [compound 115] | ++ (≥20% = ++)
7 | 116 (ALLSSVAEA; listed as Homo sapiens) [compound 116] | ++ (≥20% = ++)
8 | 117 (TLLEGISRA; listed as Homo sapiens) [compound 117] | ++ (≥20% = ++)
9 | 119 (SLIEESEEL; listed as Homo sapiens) [compound 119] | ++ (≥20% = ++)
10 | 122 (SIIDTELKV; listed as Homo sapiens) [compound 122] | +++ (≥50 = +++)
11 | 123 (QTAPEEAFIKL; listed as Homo sapiens) [compound 123] | + (≥10% = +)
12 | 124 (ALLLRLFTI; listed as Homo sapiens) [compound 124] | ++ (≥20% = ++)
13 | 125 (AALEVLAEV; listed as Homo sapiens) [compound 125] | +++ (≥50 = +++)
14 | 126 (QLREAFEQL; listed as Homo sapiens) [compound 126] | +++ (≥50 = +++)
15 | 128 (SILTNISEV; listed as Homo sapiens) [compound 128] | ++ (≥20% = ++)
16 | 129 (KMASKVTQV; listed as Homo sapiens) [compound 129] | ++ (≥20% = ++)
17 | 130 (QLYGSAITL; listed as Homo sapiens) [compound 130] | +++ (≥50 = +++)
18 | 131 (SLYPHFTLL; listed as Homo sapiens) [compound 131] | +++ (≥50 = +++)
19 | 132 (ALLNNVIEV; listed as Homo sapiens) [compound 132] | +++ (≥50 = +++)
20 | 133 (FLDGRPLTL; listed as Homo sapiens) [compound 133] | ++ (≥20% = ++)
21 | 134 (SLYKSFLQL; listed as Homo sapiens) [compound 134] | ++ (≥20% = ++)
22 | 136 (LLWDAPAKC; listed as Homo sapiens) [compound 136] | +++ (≥50 = +++)
23 | 137 (KLIYKDLVSV; listed as Homo sapiens) [compound 137] | ++ (≥20% = ++)
24 | 138 (GIINKLVTV; listed as Homo sapiens) [compound 138] | ++ (≥20% = ++)
25 | 139 (IILENIQSL; listed as Homo sapiens) [compound 139] | +++ (≥50 = +++)
26 | 140 (FLDSQITTV; listed as Homo sapiens) [compound 140] | +++ (≥50 = +++)
27 | 141 (NIDINNNEL; listed as Homo sapiens) [compound 141] | ++ (≥20% = ++)

Now from value to substance:

Row | Peptide exchange (MHC class I binding score, peptide exchange yield) | Substance
28 | ++ (≥20% = ++) | 142 (LLDAAHASI; listed as Homo sapiens) [compound 142]
29 | +++ (≥50 = +++) | 143 (MLWESIMRV; listed as Homo sapiens) [compound 143]
30 | +++ (≥50 = +++) | 144 (FLISQTPLL; listed as Homo sapiens) [compound 144]
31 | +++ (≥50 = +++) | 145 (ALEEKLENV; listed as Homo sapiens) [compound 145]
32 | ++ (≥20% = ++) | 146 (VVAAHLAGA; listed as Homo sapiens) [compound 146]
33 | +++ (≥50 = +++) | 147 (GLLSALENV; listed as Homo sapiens) [compound 147]
34 | +++ (≥50 = +++) | 148 (YLILSSHQL; listed as Homo sapiens) [compound 148]
35 | ++ (≥20% = ++) | 149 (NMADGQLHQV; listed as Homo sapiens) [compound 149]
36 | +++ (≥50 = +++) | 150 (VLLDMVHSL; listed as Homo sapiens) [compound 150]
37 | ++ (≥20% = ++) | 151 (DISKRIQSL; listed as Homo sapiens) [compound 151]
38 | +++ (≥50 = +++) | 153 (KLVELEHTL; listed as Homo sapiens) [compound 153]
39 | ++ (≥20% = ++) | 154 (AIIKEIQTV; listed as Homo sapiens) [compound 154]
40 | ++ (≥20% = ++) | 155 (TLDSYLKAV; listed as Homo sapiens) [compound 155]
41 | +++ (≥50 = +++) | 158 (YLDPLWHQL; listed as Homo sapiens) [compound 158]
42 | +++ (≥50 = +++) | 159 (QLGPVPVTI; listed as Homo sapiens) [compound 159]
43 | +++ (≥50 = +++) | 160 (TLQEWLTEV; listed as Homo sapiens) [compound 160]
44 | ++++ (≥75% = ++++) | 161 (NLLDENVCL; listed as Homo sapiens) [compound 161]
45 | +++ (≥50 = +++) | 162 (GLLGNLLTSL; listed as Homo sapiens) [compound 162]

Row | Peptide exchange (MHC class I binding score, peptide exchange yield) | Substance
46 | ++ (≥20% = ++) | 163 (GLEERLYTA; listed as Homo sapiens) [compound 163]
47 | +++ (≥50 = +++) | 164 (MLIIRVPSV; listed as Homo sapiens) [compound 164]
48 | +++ (≥50 = +++) | 165 (SLLDYEVSI; listed as Homo sapiens) [compound 165]
49 | +++ (≥50 = +++) | 166 (LLGDSSFFL; listed as Homo sapiens) [compound 166]
50 | +++ (≥50 = +++) | 167 (LVVDEGSLVSV; listed as Homo sapiens) [compound 167]
51 | +++ (≥50 = +++) | 168 (VIFEGEPMYL; listed as Homo sapiens) [compound 168]
52 | +++ (≥50 = +++) | 169 (ALADLSVAV; listed as Homo sapiens) [compound 169]
53 | ++ (≥20% = ++) | 170 (FIAAVVEKV; listed as Homo sapiens) [compound 170]
54 | ++ (≥20% = ++) | 171 (LLLLDVPTA; listed as Homo sapiens) [compound 171]
55 | +++ (≥50 = +++) | 173 (RLIDIYKNV; listed as Homo sapiens) [compound 173]
56 | ++ (≥20% = ++) | 174 (ALYSGDLHAA; listed as Homo sapiens) [compound 174]
57 | +++ (≥50 = +++) | 175 (SLLDLVQSL; listed as Homo sapiens) [compound 175]
58 | ++ (≥20% = ++) | 176 (VQSGLRILL; listed as Homo sapiens) [compound 176]
59 | +++ (≥50 = +++) | 177 (ALINVLNAL; listed as Homo sapiens) [compound 177]
60 | ++++ (≥75% = ++++) | 178 (SLVSWQLLL; listed as Homo sapiens) [compound 178]
61 | +++ (≥50 = +++) | 179 (TLGEIIKGV; listed as Homo sapiens) [compound 179]
62 | +++ (≥50 = +++) | 180 (RLYEEEIRI; listed as Homo sapiens) [compound 180]
